Measured values reported in PMC3912440 (Scientific Reports, 2014).

System: Mononuclear cell-derived human myeloid dendritic cells
Type: cell-based
Details: 0.02 μM HagB alone

B1: HagB: recombinant hemagglutinin B of P. gingivalis, 49.0 kDa protein composed of 350 amino acid residues (protein)
chain: MTVENLRLQRLQNLEHYRFAKNVLTLCRTANIAKLNPKLPELEKAIEMEDLALNPPVANELTPQVIALDEERDRAYQALMSRVRSYAFDEDSQLRNAAARIEDVAARYGNVIRMNYDKETAAIENFLTDLKGENIRPLVTKLGVTALVDRLEKNNKAFADFFLRRLSTDQRGKYDVKALRAETDRTLVAVVRRMDSIDDMEPSPEIRALIELYNRLVANRRALLARRASYGEAAVEKRRAEIAEMLRPLLARIVEEKKTAVFAGRTLGTGKNRHYLITFVAENGDEEDRWYRINGEQLVYVPEDELPKPKKKKKPASSTDTPSEPPVLPDPSQGGSSSGGGEQGSTGGGL
modifications: left off: His6 (from the vector pQE31), end not stated, state not stated
  CCL3/MIP-1α, CCL4/MIP-1β, and TNFα responses induced: strong
  CSF2/GM-CSF response induced: weaker
